# T1: human Trop-2 on the cell surface (native, endogenous or transfected) (human, UniProt P09758 27-323)
# T1 construct: On Colo205, HT29 and MCF7 cells (endogenous) and on KM12SM and murine MTE 4-14 cells transfected with Trop-2; For the transfectants the species of the Trop-2 is not repeated in the sentence; also called TACSTD-2; native Trop-2
# T1 sequence: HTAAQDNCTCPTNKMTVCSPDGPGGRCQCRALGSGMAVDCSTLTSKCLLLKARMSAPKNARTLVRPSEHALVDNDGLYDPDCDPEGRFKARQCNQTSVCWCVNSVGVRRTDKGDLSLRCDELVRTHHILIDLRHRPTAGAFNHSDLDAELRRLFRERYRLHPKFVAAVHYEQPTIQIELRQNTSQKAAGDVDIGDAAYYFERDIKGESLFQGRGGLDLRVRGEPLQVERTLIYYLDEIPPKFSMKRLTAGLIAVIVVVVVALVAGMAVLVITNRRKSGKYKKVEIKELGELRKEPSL
# B1: chimeric 2G10 IgG1/kappa antibody (Ch2G10) (antibody, V domains shown)
# VH: QGQMQQSGAELVKPGASVKLSCKTSGFTFSSSYISWLKQKPRQSLEWIAWIYAGTGGTSYNQKFTGKAQLTVDTSSSTAYMQLSSLTSEDSAIYYCARHNPRYYAMDYWGQGTSVTVSS
# VL: ETTVTQSPASLSMAIGEKVTIRCITSTDIDDDMNWYQQKPGEPPKLLISEGNTLRPGVPSRFSSSGYGTDFVFTIENMLSEDVADYYCLQSDNLPYTFGGGTKLEIKR
# notes: also called Ch2G10-IgG1/k
# B2: mouse 2G10 antibody (hybridoma PD 08020) (antibody, V domains shown)
# VH: QGQMQQSGAELVKPGASVKLSCKTSGFTFSSSYISWLKQKPRQSLEWIAWIYAGTGGTSYNQKFTGKAQLTVDTSSSTAYMQLSSLTSEDSAIYYCARHNPRYYAMDYWGQGTSVTVSS
# VL: ETTVTQSPASLSMAIGEKVTIRCITSTDIDDDMNWYQQKPGEPPKLLISEGNTLRPGVPSRFSSSGYGTDFVFTIENMLSEDVADYYCLQSDNLPYTFGGGTKLEIK
# notes: Mouse monoclonal from the hybridoma; also called murine 2G10
# B3: humanized Hu2EF-7 antibody (Hu2EF VH7 and VL2, IgG1/kappa) (antibody, V domains shown)
# VH: QVQLVQSGAEVKKPGASVKVSCKASGYTFTNYWIGWVKQAPGQGLEWIGDIYPGGGYTNYNEKFKGRATLTADTSASTAYMELSSLRSEDTAVYYCARGTGGGDYWGQGTLVTVSS
# VL: DIVLTQSPDSLAVSLGERATINCRASQSVSTSSYSYMHWYQQKPGQPPKLLIKYASNLESGVPDRFSGSGSGTDFTLTISSLQAEDVAVYYCQHSWEIPYTFGGGTKLEIKR
# B4: humanized Hu2EF-5 antibody (VH5-Hu2EF and VL1-Hu2EF, IgG1/kappa) (antibody, V domains shown)
# VH: QVQLVQSGAEVKKPGASVKVSCKASGYTFTNYWIGWVRQAPGQGLEWIGDIYPGGGYTNYNEKFKGRATLTADTSTSTAYMELSSLRSEDTAVYYCARGTGGGDYWGQGTLVTVSS
# VL: DIVMTQSPDSLAVSLGERATINCRASQSVSTSSYSYMHWYQQKPGQPPKLLIKYASNLESGVPDRFSGSGSGTDFTLTISSLQAEDVAVYYCQHSWEIPYTFGQGTKLEIK
# notes: human IgG1/kappa constant regions
# B5: humanized Hu2EF-4 antibody (VH4-Hu2EF and VL1-Hu2EF, IgG1/kappa) (antibody, V domains shown)
# VH: QVQLVQSGAEVKKPGASVKVSCKASGYTFTNYWIGWVRQAPGQGLEWIGDIYPGGGYTNYNEKFKGRATLTADTSASTAYMELSSLRSEDTAVYYCARGTGGGDYWGQGTLVTVSS
# VL: DIVMTQSPDSLAVSLGERATINCRASQSVSTSSYSYMHWYQQKPGQPPKLLIKYASNLESGVPDRFSGSGSGTDFTLTISSLQAEDVAVYYCQHSWEIPYTFGQGTKLEIK
# notes: as for B4
# B6: mouse 2EF antibody (hybridoma PD 08021) (antibody, V domains shown)
# VH: QVQLQQSGAELVRPGTSVKMSCKAAGYTFTNYWIGWVKQRPGHGLEWIGDIYPGGGYTNYNEKFKGKATLTADTSSSTAYMQLSSLTSEDSAIYYCARGTGGGDYWGQGTLVTVSA
# VL: DIVLTQSPASLAVSLGQRATISCRASQSVSTSSYSYMHWYQQKPGQPPKLLIKYASNLESGVPARFSGSGSGTDFTLNIHPVEEEDTATYYCQHSWEIPYTFGGGTKLEIK
# notes: Mouse monoclonal purified from the hybridoma; also called murine 2EF
# B7: humanized Hu2G10-6 antibody (Hu2G10 VH2 and VL3, IgG1/kappa) (antibody, V domains shown)
# VH: QVQLVQSGAEVKKPGASVKVSCKASGFTFSSSYISWLRQAPGQRLEWIAWIYAGTGGTSYNQKFTGRVTLTVDTSASTAYMELSSLRSEDTAVYYCARHNPRYYAMDYWGQGTTVTVSS
# VL: DTQMTQSPSSLSASVGDRVTITCITSTDIDDDMNWYQQKPGKAPKLLISEGNTLRPGVPSRFSGSGYGTDFTFTISSLQPEDIATYYCLQSDNLPYTFGGGTKVEIKR
# B8: humanized Hu2G10-5 antibody (Hu2G10 VH1 and VL3, IgG1/kappa) (antibody, V domains shown)
# VH: QVQLVQSGAEVKKPGASVKVSCKASGFTFSSSYISWLRQAPGQRLEWIAWIYAGTGGTSYNQKFTGKATLTVDTSASTAYMELSSLRSEDTAVYYCARHNPRYYAMDYWGQGTTVTVSS
# VL: DTQMTQSPSSLSASVGDRVTITCITSTDIDDDMNWYQQKPGKAPKLLISEGNTLRPGVPSRFSGSGYGTDFTFTISSLQPEDIATYYCLQSDNLPYTFGGGTKVEIKR
# Assays:
# [1] = molecular target: T1, human Trop-2 on the cell surface …; assay: flow cytometry competition with 2G10-488 on MTE 4-14/Trop-2 and MCF7 cells (sentence also sums up the competitive ELISA)
# Excerpt: The binding to Trop-2 of the purified Ch2G10, Hu2G10-5 and Hu2G10-6 antibodies was also characterized by flow cytometry using alive cells that express native surface Trop-2 (either ndogenous or transfected). […] The cells were then washed and analyzed by flow cytometry as described.
# [2] = molecular target: T1, human Trop-2 on the cell surface …; assay: cell-based or functional assay
# [3] = molecular target: T1, human Trop-2 on the cell surface …; assay: flow cytometry competition on Colo205 cells, competitor of 2EF-488 at 9x and 27x
# Description: (§1) The relative affinity of Hu2EF-4 e Hu2EF-5 for the native Trop-2 antigen was also analysed by means of […] competitive binding measured by flow cytometry on live tumor cells that express surface Trop-2. […] After 20 min at 4° C. cells were washed with 5 ml of SM and resuspended in 500 μl di SM with 0.5 μg/ml propidioiodide to discriminate dead cells). Fluorescence was then analysed by flow cytometry (FACScalibur, FACScan, Becton Dickinson, Sunnyvale, Calif.) as previously described (Alberti, Nutini et al. 1994) (FIG. 31). […] Simila results were obtained for the Hu2EF-4 antibody.
# [4] = molecular target: T1, human Trop-2 on the cell surface …; assay: flow cytometry competition on Colo205 cells, competitor of 2EF-488
# Description: as §1
# [5] = molecular target: T1, human Trop-2 on the cell surface …; assay: flow cytometry competition on Colo205 cells (FIG. 31 and FIG. 37)
# Description: FIG. 37: Relative affinity of the 2EF and Hu2EF-7 antibodies for native Trop-2—Flow citometry analysis. Human colon cancer COLO205 cells, which are positive for Trop-2, were incubated with FITC-labelled 2EF antibody pre-mixed with increasing concentrations of unlabelled Hu2EF-7 purified from CHO-K1 or YB2/0 cells.
# as §1
# [6] = molecular target: T1, human Trop-2 on the cell surface …; assay: flow cytometry, MCF-7 cells, goat anti-human Alexa-488
# Description: FIG. 38: Specific recognition of Trop-2 by the humanized monoclonal antibodies according to the present invention - analysis by flow cytometry. (A) human metastatic colon cancer KM12SM cells transfected with a vector expressing Trop-2 (left panel) or with the empty vector (right panel) were incubated with the ‘humanized anti-Trop-2 monoclonal antibody Hu2EF-7. […] Unstained negative controls (thin line) are shown for comparison. (B) Human colon cancer HT29 cells (left panel) or breast cancer MCF-7 cells (right panel) expressing Trop-2 were incubated with the humanized Hu-2EF-7 and Hu-2G10-6anti-Trop-2monoclonal antibodies respectively.
binder,measurement,setting,value
B1,binding result,[1],binds
B2,binding result,[1],binds
B3,EC50 of ADCC reporter bioassay (luciferase luminescence; Jurkat effector cells with V158 FcgammaRIIIa and NFAT-luciferase; MCF7 target cells),[2],0.052 µg/mL
B4,binding result,[3],binds
B5,binding result,[4],binds
B6,binding result,[5],binds
B7,binding result,[6],binds
B8,EC50 of ADCC reporter bioassay (luciferase luminescence; Jurkat effector cells with V158 FcgammaRIIIa and NFAT-luciferase; MCF7 target cells),[2],4.15 µg/mL
